PMC10042821 (2023)

B1: deoxyhypusine synthase, wild type, His-tagged (enzyme)
chain: MEGSLEREAPAGALAAVLKHSSTLPPESTQVRGYDFNRGVNYRALLEAFGTTGFQATNFGRAVQQVNAMIEKKLEPLSQDEDQHADLTQSRRPLTSCTIFLGYTSNLISSGIRETIRYLVQHNMVDVLVTTAGGVEEDLIKCLAPTYLGEFSLRGKELRENGINRIGNLLVPNENYCKFEDWLMPILDQMVMEQNTEGVKWTPSKMIARLGKEINNPESVYYWAQKNHIPVFSPALTDGSLGDMIFFHSYKNPGLVLDIVEDLRLINTQAIFAKCTGMIILGGGVVKHHIANANLMRNGADYAVYINTAQEFDGSDSGARPDEAVSWGKIRVDAQPVKVYADASLVFPLLVAETFAQKMDAFMHEKNED
B2: eukaryotic translation factor 5A-1 (eIF5A-1), residues 15-151 (domain or fragment)
chain: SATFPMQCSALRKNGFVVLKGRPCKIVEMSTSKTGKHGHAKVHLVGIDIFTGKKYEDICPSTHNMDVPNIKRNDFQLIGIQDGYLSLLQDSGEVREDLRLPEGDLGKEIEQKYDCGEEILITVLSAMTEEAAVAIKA

Assays:
[1] = molecular target: B2; assay: MST; + NAD
[2] = molecular target: B2; assay: MST; + NAD + SPD
[3] = molecular target: T1, deoxyhypusine synthase delY305_I306, patient-derived variant, His-tagged (human, UniProt P49366 1-369, delY305_I306); assay: MST; + NAD
[4] = molecular target: deoxyhypusine synthase N173S, patient-derived variant, His-tagged (human, UniProt P49366 1-369, N173S); assay: MST; + NAD + SPD
[5] = molecular target: T1, deoxyhypusine synthase delY305_I306, …; assay: MST; + NAD + SPD

| Kd [1] [nM] | Kd [2] [nM] | Kd [3] [nM] | Kd [4] [nM] | Kd [5] [nM] | Binder |
| --- | --- | --- | --- | --- | --- |
| 27 | 81.7 | – | – | – | B1 |
| – | – | 368 | 426 | 1580 | B2 |
